Measured values: the DeepSol protein solubility set

Test: soluble on expression in E. coli; label from the status in PepcDB or PDB records

Sequence	soluble on expression in E. coli
MGSDKIHHHHHHMKGIEIVNYGGPEVAKVRTFSSPVRRSGEVMIQVVASSINPVDIKYMTPETIQKIPSFPAILGWDIAGIIIEADKNSNFSAGERVVAFHPQGSWQQLVTASENQVVKLPDNIDFISGGSIPLAASTALQALRRLRLEPGERLLVTGAAGSVGYYALQFALKMGVKASGLVRNKNQKMSINLLDTEIYTNDDPIPEFDAVFDTAGVLNRIDVIHKGGRLVTVSDEQIDPQVLKHTSFAEHNYVRVNKEDLEEIVHLVSEAKIETRVAKIYSFNNVQEALAQAIKSGNNGKVMLIF	not soluble
MGSDKIHHHHHHMKIAISGKGGVGKTTLAATLAYLFARDGYRVTAIDCDADINLPSALGVKEKPKPLSELHEIIEKRVVGPMGTYKLNPKVDDVFEEYSVYNEDGVRVLVLGTIEKGGEGCFCPENAFLRAILRHAIFKREDVLILDMEAGIEHLGRGTARGVDLLIAVVEPGTRAVETLERIEKLGRDIGIERIAVVVNKFIESERARELISGIKYPILGVIHYDQCFVRADLENVPPYTVCDLKPFEEIKRRIEEFVQ	not soluble
MGSDKIHHHHHHMKIDTLGVQAFVAIADGGSFRQAADTLHVTQTAITQRLRKLESFLGVALVERTTRRTTLTEIGRRFLPQARRLLNELSDALTEIRETGLSQRGDVTIACVPTVGVQYLPRILRAFSGHRPHDRVKILDHASASVLQAVLRREAEFGISIAGDQHPELVSVPLTHDPYVLVCRDDHPLAKRRRIRWAALQPHPLIFAGEVSGNRGLLDGALKTSGVSLHSFYEVQRSSTALGLVAEGLGAAVVPKLAVQKNAYPMIRTIELVEPSVSRTLVLVKRKAAQLSPAAQALYDMIVERATPGR	not soluble
MGSDKIHHHHHHMKILAFGEVLLRMTVPEHLMLTQTDELRMSTVGTGVNLLSSLTHFGYRTRLLSRLPDNALGQRAAGELRRYGIQDDYVTFGGQHMGAYFVELGYGSRPERVTYQDRLSSAFCQQPPDDQEIAAALVGCQFVHICGITLSLTAPVRQAALRLAQQAHANGQRVCFDFNYRQQLNTGVAHETLKARYQEILPYVDIVFGSKRDLTALLDYPDDEDRTQSANRESEAALYEQFVRDYHIDYFAGSYRYQIGQQKWFAGFSYQHQQLVVGKARPLMILDRIGSGDAFASGIITALIEGWSLQKTTDFAIATAILAQATVNDAPEFTKEMVLADMASDGQLELIR	not soluble
MGSDKIHHHHHHMKILFGPVSSRRFGRSLGIDLSPSKKQCNFDCVYCELDPKKAQEKQDEIISIDKIISEVKAMLEKNVEFDFLTLTANGEPSLYPYLNELILSLRSIAKDKKLLILSNGTAVLDEDKFNALLKLDVVKFSLDSAVAKTFYRIDRALKNIDLEKMIEKMADFRARFNGDLIMEILVVKDLNDNEEEFEALNQALKKIMPLRVDLSTIDRPPAYAVKKVSEEKLLELSKLIDSTPVLLAKRHYEGEKLSFNEEELLKMLHLRSQSEIDIEVKFDEQSKTLLNQLIKEKKVKILDLAGVKFYKV	not soluble
MGSDKIHHHHHHMKILFLSHLDMNLYLFRRPIMEALRKEGHEVIAMCPKGEYFDRFKELGIKAISYEISRESLNPFKELKTLLSIAQKLSELKPDILHTFMLKPNIYGTLASKIASIPYVICSVTGLGSFYIEESFKSRAIRYLIETLSRIVFKIAKKVVFQNEDDRQLFIQKGLVESSKTHLIKGSGINTKLFDPALISPSTLVRYRQELGLEKKHVVLMVARAIAHKGVREYYEAARLLGAFTSDSHLAFLFVGDTDEGNPSCVSSKELYSPHVLWLGHREDILELMALCDIFVLPSYREGIPRTLLEASSLAKPMVTSLAVGCKEVVKEGENGFLVPVGDTKALAQKIHYLVQNPALRLSMGEKARQIAQKEFDVSIIVKAHLELYKEVRGDLQKTL	not soluble
MGSDKIHHHHHHMKIRVDIIGLKGGVGKTTIALNTALYLSKRYKVLYIDKDLLSMGSLILGFNGLGFNKAIVEGLGNEQYEYKVNNNLTLFKLYSDPVNERELQHKVKGMGEKAERAYVDVVSKGYDVIIVDYGRIFRTNDPLVYDEYEMFKKNFPDYTIAAAGITDAIRNDVTDVVKYFLDTINRIKAKPLAFVINMVPQIGDIQKEINQIVREISEVVKCDILTIPFNEKLVQYANMGEVEEMQKVGKLIERILSNG	not soluble
MGSDKIHHHHHHMKITIYSKDLYTYGAMLVGGILKETHKHNIKLIKDIKNKKLFLKSDIVILSLYSTLNIIDPVIKDTVDYLKSKNIKIYVAGPVSAYPEIILNELNVDGVILGEGELTTPEIINGSKDGLAYFENGEMIVNKPKSKPDLDFSKIYVPKDIAAQNVRGANVYIETHRGCLGHCTFCQVPEFFGRDIRSKPIELIIEEVNELKKNGVNRIAISGGTGSLYNFKNTVNKNKFIEMIESVSNIIGRQNLSVPDMRVDYVDEEVLNAIKNYSIGWVFYGIESGSDKLLNSMKKGTNSKKNLKAIELAKDCGVKVAGSFIVGHPKEKEVDFLMTKDFIVDAELDDVFVSAAEPIPKTELCTEVLNTKMDENPTFISHNGPYRRYGLKENEARAYDLMLHSEMWKSTPRVITTNLSKVYLDEAKMQGSDIRKATELIFKYRDFLI	not soluble
MGSDKIHHHHHHMKITLHGVAETLLITLYIRAKDAMAKHPILNDQKSLAIVEQIEYDFDKFDNSEASFYATLARIRVMDREIKKFIRENPNSQILSIGCGLDTRFERVDNGQIRWYNLDLPEVMEIRKLFFEEHERVTNIAKSALDETWTREVNPQNAPFLIVSEGVLMFLKEDDVETFLHILTNSFSQFMAQFDLCHKEMINKGKQHDTVKYMDTEFQFGITDGHEIVDLDPKLKQINLINFTDEMSKFELGTLRSLLPTIRKFNNCLGVYEYKASEKK	not soluble
MGSDKIHHHHHHMKITTVGLDIAKSVFHFVGVNKAGKLVKKKMIKRKDLLHFLAQIEPCLVVMEACGGANYWAREFEKVGHQVKLIAPQYVVPYRQGNKNDYNDALAIAEAAQRPNMRFVQPKPAEQQDIQMLHRMRERLSKQSTALVNQVRGMLAEYGIVITKGKASFRSKLPDILENADNELTAKGRSIFYQLYEEFNGIEERLKRCDNQVQQETKNNHVCQRLESVPGIGPVTATAFYAAVGEGKDFTNGRHFSAWCGLVPKQHSSGGKDNLLGISKRGNAYLRTLFIHGARAVLYHSDGKGDRFSRWAIALAERRGFNRACVAVANKLARIAWVIAAREDEYRMAV	not soluble
MGSDKIHHHHHHMKKAVLIVNPSSGGEKAKEFETLAEEKLKQLFDEVVVKQTEKGGDAEQFAREAAESHFDSVFVMGGDGTVNEGISGLAEQAYRPKFGFFPLGTVNDLARALNLPMDPEEAIQQLDLEKTSALDVGKINDDYFMNVVAIGTIPESINDVDVEQKTKLGKLAYFISGAKHLANAQTYPFHLSLDQKEQTIESSTVLVGLTNSIGGFETLLPEAQVDDGKLHLVYLKDQSLWDAVKAVPDLLKGVDQSTDNLVYLTFKEGTISLENQEELTTNVDGDEGAALPITLKILPKHLTVYCGEEQTK	not soluble
MGSDKIHHHHHHMKKFVCSNCGYVSPKWFGRCPQCGEYDTAEEVQRRKNREGSPSLFLNLEDAGEISLERLSTGFSELDRAFRGGIVPGQVILLSGEPGIGKSTIALQIAERFAERGLVVYVSGEESPQQLKLRADRLLLKRKKDILLTLENDIDEIISSLQNKRVSFMVVDSIQTVFSSDLGSSPGSISQVKNVTMKTIDFAKRRGVPVLLVGHVTKEGEIAGPKLVEHMVDTVAYFEGDRRTGLRLLKITKNRFGPSDEVAVFELKENGFVQVENPSFTEGDADLPGNVLTCVFEGTKPFVVQIQALVSKNRTFSPKRVCKGVDVNRVMLLIAVISKYLKLPIETHDVYVNVVGGLRVTDPAADLAIALSIVSSYLEVSLHNTAAVGEIGLDGRVRKVYNINRRLNSLKSSGRIIVPPIEEEQKGVFEVRDLKEAVSIIGGEILGTPGAD	not soluble
MGSDKIHHHHHHMKKGIQLVALLLTVVMSSCTGGKDKAAVKQEDEKPRVKVADVTARPVDQIQDYTATVEAEVKNNIAPSSPVRIDRILVEVGDRVSKGQKLVQMDAANLTQTKLQLDNQKIEFNRIDELYKVGGASKSEWDAAKMQLDVKQTAYDNLVENTFLLSPINGVITARNYDNGDMYSGGSPVLVVEQITPVKLMINVSETYFTKVKKGEPVDVKLDVYGDELFKGTISLIYPTIDATTRTFQIEIKLDNKDQRVRPGMFARATLNFGTADNVVVPDLAIVKQAGSGDRYVYVYKDGKVSYNKVELGRRMGSEYELKSGVPDNSQVVVAGQARLINGTEVEIEK	not soluble
MGSDKIHHHHHHMKKIAVLTSGGDAPGMNAAVRAVVRYGVRQGLEVIGVRRGYSGLIDGDFVKLEYKDVAGITEKGGTILRTSRCEEFKTEEGRELAAKQIKKHGIEGLVVIGGEGSLTGAHLLYEEHKIPVVGIPATIDNDIGLTDMCIGVDTCLNTVMDAVQKLKDTASSHERAFIVEVMGRHSGYIALMAGLVTGAEAIIVPEIPVDYSQLADRILEERRRGKINSIIIVAEGAASAYTVARHLEYRIGYETRITILGHVQRGGSPTAFDRRLALSMGVEAVDALLDGEVDVMIALQGNKFVRVPIMEALSTKKTIDKKLYEIAHMLS	not soluble
MGSDKIHHHHHHMKKIGHRIKTRRKLKGLTQEALGLAVGVSKVSVSSWELGKNSMHPELLNKVAGVLGVDAHWLLTGESFATLEDEKDSVFWAPKYKNIKAAAGAGCCHDDCLDEDEDEVPIPIKFVKNQTNKDQIFCVCVSGDSMEPVLSDGSIIAMNSSDTIIKDGKMYLVKQDDLLRVKVIHLLPKDMVLKSYNPNFKDETYNIKKDNIQILGRVFWFTSGR	not soluble
MGSDKIHHHHHHMKKLFVLFLAVLSVLVLAEVKNPDTIIDATIGEPDTLDPHFAYDTASGEVIYNVYENLIAYKGESLTEFEPRLAERWEILDDGKTYKFYIRKGVKFHEGGDLTPEDVEYSFERGLIFDPTAGPMWMLWEALFGVDSLETFVEEKIGKPYSELFDENGEPLPEYRDALIKIYTDYIDPAIEVEGDAVVFHLVRPFAPFMYILAQSASWSAVLDKEWCIEIGCWDGRADTWWKYHDIRKEDSPLYARMNGTGPFKFVEWDRAQQKVILERNDNYWREPAKIKRVIIWGIDEWSTRRAMFLQGDADICAVPTQYLEQVEGKPGVTVVKGLPELAVTSLHFAWNVPEDSKYIGSGKLDGNGIPPDFFSDENVRKAFIYAFDYDTFINEVLKGLGRKIPTDLPEGLLGFNEELLNDPDAPHFDIVKATEYFKKAWNGEVWKKGFKITLLYNTGNEVRRQAAEMLKAYIEMINPKFKVEVRGVQWPTYLDATKRGEVPAFIIGWLADYPDPHNFIFTYYHSAGVYSGRQGENFRKFVSTPHPDLGGRSLDELIEEAIAKTDPAERQALYEEIQRFAMKHALGMPLYQPLGVRVQRSWVKGWYHNPMRPGDDYYVLWKAEE	not soluble
MGSDKIHHHHHHMKKLRELTVEELFESFVLIKNADVRVAKNGKKFIAFTFQDTSGTIDGKYWDASEDEITRFTAGNVVLLNGKREVYQNKPQVKILHMRLATAEEPSQPSLYMERAPLKKEEMVEEINQVIFEITNAHWNRIVRYLMTKYQQEFYEFPAAKRNHHAFANGLAYHTVSMLRLGKAIAKEYTEINTSLLYAGIILHDLGKVLELSGAITTEYTVAGNLIGHLVLVDEEITKACLALKIDDREEDVVVLRHMVLAHHGLLEYGSPVRPRIMEAEILHQIDTMDASIQMMLGAIRQTQPGEYTERIFGLDNRSFYVPKDK	not soluble
MGSDKIHHHHHHMKKSIVVFEVEGGSDKHFDGHRKDTMPIVNSINDAGWQAEVVYYRPEWTEGLFEYVSENFDGYISRVNPGNIPGGERGYFDLLTRLSEAGLVGMSTPEEMMAYGAKDALVKLSQTDLVPSDTEAYYDVETFHKVFPTSLSFGERVLKQNRGSTGSGIWRVQLVDKELAASIEPGTALPLDTEIKCTEAVDNHTEVRKLGEFMDFCDQYIIGDNGMLVDMRFMPRIVEGEIRILLVGPHPVFVVHKKPAEGGDNFSATLFSGAKYTYDKPEQWQELIDLFADARPVIAEKLGGDNIPLIWTADFMLGDVVDGKDTYVLGEINCSCVGFTSELDMGIQQLVASEAIKRIEEFAQLTV	not soluble
